The record followed here is US20210380703A1 (RIGEL PHARMACEUTICALS, published 2021).

Test [1] deals with T1, biotinylated goat anti-human kappa light chain.
T1 construct: positive control of the ELISA
Description: ELISA, positive control. Here is the method:
The binding of ACVR2A-specific monoclonal antibodies to human ACVR2A, mouse ACVR2A, biotinylated goat anti-human kappa light chain (positive control) and human Fc (negative control) were determined by ELISA.
(In general: In an ELISA, binding on a coated surface is turned into a signal by an enzyme label.)

Test [2] addresses T2, human ACVR2A (human, UniProt P27037 20-135, limits assumed).
T2 construct: coated antigen of the initial ELISA; also called activin receptor, type II A
Description: ELISA. A digest of the protocol:
(§1)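 Binding signal was read by ELISA after ACVR2A-specific monoclonal antibodies were tested against human ACVR2A and mouse ACVR2A, with human Fc as the negative control.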

The target of test [3] is T3, mouse ACVR2A (mouse, UniProt P27038 20-135, limits assumed).
T3 construct: coated antigen of the initial ELISA
T3 sequence (P27038 20-135 limits assumed): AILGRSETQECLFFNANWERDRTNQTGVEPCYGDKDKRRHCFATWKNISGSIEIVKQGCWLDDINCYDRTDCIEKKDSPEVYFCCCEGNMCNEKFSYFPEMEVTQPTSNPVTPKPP
The test can be described thus: ELISA. A digest of the protocol:
as §1
Note: test concentration or dose not given here.

T2 sequence (P27037 20-135 limits assumed): as the sequence (P27038 20-135 limits assumed) above, with R20K, I73V counted along it

B1: 367_D08 (antibody, V domains shown)
VH: EVQLLESGGGLVQPGGSLRLSCAASGFTFSDYSMNWVRQAPGKGLEWVAGINYNGGYTSYADSVKGRFTISRDNSKNTLYLQMNSLRAEDTAVYYCARGANWHDTHLDYWGQGTLVTVSS
VL: DIQMTQSPSSLSASVGDRVTITCRASQSILSYLNWYQQKPGKAPKLVIYAATSRHSGVPSRFSGSGSGTDFTLTISSLQPEDFATYYCQQSDDLPLTFGGGTKVEIK
notes: Group III
B1: the optical density in test [1] came out at 3.5 OD; in test [2] it was 2.18 OD; in test [3], 2.37 OD.

B2: 367_E05 (antibody, V domains shown)
VH: EVQLLESGGGLVQPGGSLRLSCAASGFTFSSYGMNWVRQAPGKGLEWVAGINYNGGYTSYADSVKGRFTISRDNSKNTLYLQMNSLRAEDTAVYYCARGANWHDTHLDYWGQGTLVTVSS
VL: DIQMTQSPSSLSASVGDRVTITCRASQSILSYLNWYQQKPGKAPKLLIYAATSRHSGVPSRFSGSGSGTDFTLTISSLQPEDFATYYCQQSYDSPLTFGGGTKVEIK
notes: Group III
As for B2, the figures for the optical density in test [1], in test [2] and in test [3] were 3.47 OD, 2.35 OD and 2.64 OD, respectively.

B3: 368_B09 (antibody, V domains shown)
VH: EVQLLESGGGLVQPGGSLRLSCAASGFTFDSYGMNWVRQAPGKGLEWVSNINYNGGYKGYADSVKGRFTISRDNSKNTLYLQMNSLRAEDTAVYYCARGANWHDTHLDYWGQGTLVTVSS
VL: DIQMTQSPSSLSASVGDRVTITCRASQSILSYLNWYQQKPGKAPKLLIYAATSRHSGVPSRFSGSGSGTDFTLTISSLQPEDFATYYCQQSYDTPLTFGGGTKVEIK
notes: Group III
Regarding B3, the optical density in test [1] was found to be 3.43 OD; in test [2], 2.54 OD; in test [3], 2.81 OD.

B4: 368_A04 (antibody, V domains shown)
VH: EVQLLESGGGLVQPGGSLRLSCAASGFTFDDYSMNWVRQAPGKGLEWVAGINYNGGYKSYADSVKGRFTISRDNSKNTLYLQMNSLRAEDTAVYYCARGANWHDTHLDYWGQGTLVTVSS
VL: DIQMTQSPSSLSASVGDRVTITCRASQSILTYLNWYQQKPGKAPKLVIYAVTSRASGVPSRFSGSGSGTDFTLTISSLQPEDFATYYCQQSYELPLTFGGGTKVEIK
notes: Group III
In the case of B4, the optical density is 3.56 OD in test [1], 2.35 OD in test [2] and 2.35 OD in test [3].

B5: 367_H02 (antibody, V domains shown)
VH: EVQLLESGGGLVQPGGSLRLSCAASGFTFDSYGMNWVRQAPGKGLEWVSSINYNGGYTGYADSVKGRFTISRDNSKNTLYLQMNSLRAEDTAVYYCARGANWHDTHLDYWGQGTLVTVSS
VL: not shown
notes: Group III
Consider B5, for which the optical density in test [1] is 3.62 OD; in test [2] it was 1.08 OD; in test [3] it was 1.2 OD.

B6: 368_H02 (antibody, V domains shown)
VH: EVQLLESGGGLVQPGGSLRLSCAASGFTFSSYGMNWVRQAPGKGLEWVAGINYNSGYTSYADSVKGRFTISRDNSKNTLYLQMNSLRAEDTAVYYCARGANWHDTALDYWGQGTLVTVSS
VL: DIQMTQSPSSLSASVGDRVTITCRASQSIVTYLNWYQQKPGKAPKLVIYAATSRASGVPSRFSGSGSGTDFTLTISSLQPEDFATYYCQQSYESPLTFGGGTKVEIK
notes: Group III
For the molecule B6, the optical density stood at 3.58 OD in test [1], 2.41 OD in test [2] and 2.54 OD in test [3].

B7: 367_G01 (antibody, V domains shown)
VH: EVQLLESGGGLVQPGGSLRLSCAASGFTFDSYGMNWVRQAPGKGLEWVASINYNSGYTGYADSVKGRFTISRDNSKNTLYLQMNSLRAEDTAVYYCARGANWHDTHLDYWGQGTLVTVSS
VL: DIQMTQSPSSLSASVGDRVTITCRASQSISSYLNWYQQKPGKAPKLVIYAATSRASGVPSRFSGSGSGTDFTLTISSLQPEDFATYYCQQSYDLPLTFGGGTKVEIK
notes: Group III
On to B7, for which the optical density in test [1] amounted to 3.58 OD; in test [2], 1.8 OD; in test [3], 1.94 OD.

B8: 369_B05 (antibody, V domains shown)
VH: EVQLLESGGGLVQPGGSLRLSCAASGFTFDSYSMNWVRQAPGKGLEWVSGINYNGGYKSYADSVKGRFTISRDNSKNTLYLQMNSLRAEDTAVYYCARGANWHDTHLDYWGQGTLVTVSS
VL: DIQMTQSPSSLSASVGDRVTITCRASQSIISYLNWYQQKPGKAPKLLIYAATSLASGVPSRFSGSGSGTDFTLTISSLQPEDFATYYCQQSYDTPLTFGGGTKVEIK
notes: Group III
B8: the values for the optical density in test [1], in test [2] and in test [3] were 3.44 OD, 2.78 OD and 3.06 OD, respectively.

B9: 368_E12 (antibody, V domains shown)
VH: EVQLLESGGGLVQPGGSLRLSCAASGFTFSDYGMNWVRQAPGKGLEWVAGINYNGGYTSYADSVKGRFTISRDNSKNTLYLQMNSLRAEDTAVYYCARGANWHDTHLDYWGQGTLVTVSS
VL: DIQMTQSPSSLSASVGDRVTITCRASQSIVSYVNWYQQKPGKAPKLVIYAVTSRASGVPSRFSGSGSGTDFTLTISSLQPEDFATYYCQQSYDSPLTFGGGTKVEIK
notes: Group III
Regarding B9, the values for the optical density in test [1], in test [2] and in test [3] were 3.65 OD, 1.29 OD and 1.55 OD, respectively.

B10: 368_H05 (antibody, V domains shown)
VH: EVQLLESGGGLVQPGGSLRLSCAASGFTFSSYSMNWVRQAPGKGLEWVANINYNGGYKSYADSVKGRFTISRDNSKNTLYLQMNSLRAEDTAVYYCARGANWHDTHLDYWGQGTLVTVSS
VL: DIQMTQSPSSLSASVGDRVTITCRASQSIVSYVNWYQQKPGKAPKLVIYATTSRASGVPSRFSGSGSGTDFTLTISSLQPEDFATYYCQQSYESPLTFGGGTKVEIK
notes: Group III
With B10, the results for the optical density in test [1], in test [2] and in test [3] were 3.34 OD, 1.95 OD and 2.2 OD, respectively.

B11: 367_H03 (antibody, V domains shown)
VH: EVQLLESGGGLVQPGGSLRLSCAASGFTFSSYGMNWVRQAPGKGLEWVAGINYNSGYTSYADSVKGRFTISRDNSKNTLYLQMNSLRAEDTAVYYCARGANWHDTHLDYWGQGTLVTVSS
VL: DIQMTQSPSSLSASVGDRVTITCRASQSIITYVNWYQQKPGKAPKLLIYAATSLASGVPSRFSGSGSGTDFTLTISSLQPEDFATYYCQQSYDLPLTFGGGTKVEIK
notes: Group III
For the molecule B11, the optical density in test [1] came out at 3.34 OD; in test [2], 2.04 OD; in test [3], 2.2 OD.

B12: 368_C08 (antibody, V domains shown)
VH: EVQLLESGGGLVQPGGSLRLSCAASGFTFSDYSMNWVRQAPGKGLEWVSGINYNGGYTSYADSVKGRFTISRDNSKNTLYLQMNSLRAEDTAVYYCARGANWHDTHLDYWGQGTLVTVSS
VL: DIQMTQSPSSLSASVGDRVTITCRASQSILTYVNWYQQKPGKAPKLLIYAASSLQSGVPSRFSGSGSGTDFTLTISSLQPEDFATYYCQQSYSTPLTFGGGTKVEIK
notes: Group III
B12: the optical density in test [1] is 3.38 OD; in test [2], 2.26 OD; in test [3] it was 2.43 OD.

B13: 368_F09 (antibody, V domains shown)
VH: EVQLLESGGGLVQPGGSLRLSCAASGFTFSSYGMNWVRQAPGKGLEWVSGINYNSGYTSYADSVKGRFTISRDNSKNTLYLQMNSLRAEDTAVYYCARGANWHDTHLDYWGQGTLVTVSS
VL: DIQMTQSPSSLSASVGDRVTITCRASQSILTYLNWYQQKPGKAPKLLIYAASSLQSGVPSRFSGSGSGTDFTLTISSLQPEDFATYYCQQSYETPLTFGGGTKVEIK
notes: Group III
B13: the results for the optical density in test [1], in test [2] and in test [3] were 3.58 OD, 2.39 OD and 2.45 OD, respectively.

B14: 367_F01 (antibody, V domains shown)
VH: EVQLLESGGGLVQPGGSLRLSCAASGFTFDSYSMNWVRQAPGKGLEWVSNINYNGGYKSYADSVKGRFTISRDNSKNTLYLQMNSLRAEDTAVYYCARGANWHDTHLDYWGQGTLVTVSS
VL: not shown
notes: Group III
For B14, the optical density in test [1] was found to be 3.72 OD; in test [2], 2.42 OD; in test [3], 2.76 OD.

B15: 367_D12 (antibody, V domains shown)
VH: EVQLLESGGGLVQPGGSLRLSCAASGFTFSSYSMNWVRQAPGKGLEWVSSINYNGGYTGYADSVKGRFTISRDNSKNTLYLQMNSLRAEDTAVYYCARGANWHDTHLDYWGQGTLVTVSS
VL: DIQMTQSPSSLSASVGDRVTITCRASQSIVSYVNWYQQKPGKAPKLVIYAATSRASGVPSRFSGSGSGTDFTLTISSLQPEDFATYYCQQSYESPLTFGGGTKVEIK
notes: Group III
For B15, the optical density in test [1] stood at 3.57 OD; in test [2], 2.44 OD; in test [3], 2.69 OD.

B16: 368_A03 (antibody, V domains shown)
VH: EVQLLESGGGLVQPGGSLRLSCAASGFTFSSYSMNWVRQAPGKGLEWVSGINYNGGYTGYADSVKGRFTISRDNSKNTLYLQMNSLRAEDTAVYYCARGANWHDTHLDYWGQGTLVTVSS
VL: DIQMTQSPSSLSASVGDRVTITCRASQSIISYLNWYQQKPGKAPKLLIYAVTSRASGVPSRFSGSGSGTDFTLTISSLQPEDFATYYCQQSYENPLTFGGGTKVEIK
notes: Group III
Take B16: the values for the optical density in test [1], in test [2] and in test [3] were 3.41 OD, 2.83 OD and 2.83 OD, respectively.

B17: 369_A07 (antibody, V domains shown)
VH: EVQLLESGGGLVQPGGSLRLSCAASGFTFSSYSMNWVRQAPGKGLEWVAGINYNGGYKGYADSVKGRFTISRDNSKNTLYLQMNSLRAEDTAVYYCARGANWHDTALDYWGQGTLVTVSS
VL: DIQMTQSPSSLSASVGDRVTITCRASQSILSYLNWYQQKPGKAPKLVIYAATSRASGVPSRFSGSGSGTDFTLTISSLQPEDFATYYCQQSYESPLTFGGGTKVEIK
notes: Group III
As to B17, the optical density in test [1] was 3.42 OD; in test [2] it was 3.55 OD; in test [3] it was 3.56 OD.

B18: 367_G04 (antibody, V domains shown)
VH: EVQLLESGGGLVQPGGSLRLSCAASGFTFSSYSMNWVRQAPGKGLEWVAGINYNSGYTSYADSVKGRFTISRDNSKNTLYLQMNSLRAEDTAVYYCARGANWHDTHLDYWGQGTLVTVSS
VL: DIQMTQSPSSLSASVGDRVTITCRASQSILSYLNWYQQKPGKAPKLVIYAATSRASGVPSRFSGSGSGTDFTLTISSLQPEDFATYYCQQSYDSPLTFGGGTKVEIK
notes: Group III
Regarding B18, the optical density is 3.36 OD in test [1], 2.98 OD in test [2] and 3.04 OD in test [3].
